Reference: PMC5122344, “Nuclear delivery of recombinant OCT4 by chitosan nanoparticles for transgene-free generation of protein-induced pluripotent stem cells”

Legend:
[1] = target: T1, GST-OCT4 (human, UniProt Q01860 1-360); assay: EMSA; soluble OCT4, 30 ng per lane; LI-COR Odyssey EMSA kit 1x binding buffer (composition and pH not given), 2.5 mM DTT, 0.25% Tween-20, 1 ug poly(dI-dC) in 20 ul, 20 min at RT; 4% native PAGE in 0.5x TBE; details: protein: recombinant; tags: GST (N-terminal, pAcG2T); label: IRDye 700; (only one strand printed)
T1 sequence (Q01860 whole entry): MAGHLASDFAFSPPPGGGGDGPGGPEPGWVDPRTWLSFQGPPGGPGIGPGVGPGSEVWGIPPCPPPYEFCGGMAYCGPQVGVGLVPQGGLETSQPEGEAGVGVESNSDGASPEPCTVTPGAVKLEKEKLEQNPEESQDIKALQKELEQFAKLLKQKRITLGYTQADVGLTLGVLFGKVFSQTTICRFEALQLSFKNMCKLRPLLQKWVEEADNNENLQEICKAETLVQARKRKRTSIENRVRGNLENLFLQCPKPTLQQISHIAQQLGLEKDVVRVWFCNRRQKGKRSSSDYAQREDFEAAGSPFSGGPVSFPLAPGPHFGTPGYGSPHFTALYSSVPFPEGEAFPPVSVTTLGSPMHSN

[2] = target: T1, GST-OCT4; assay: competition; 50-fold excess unlabeled oligonucleotide abolishes complex; LI-COR Odyssey EMSA kit 1x binding buffer (composition and pH not given), 2.5 mM DTT, 0.25% Tween-20, 1 ug poly(dI-dC) in 20 ul, 20 min at RT; 4% native PAGE in 0.5x TBE; details: protein: recombinant; tags: GST (N-terminal, pAcG2T); label: none; (only one strand printed)

B1: octamer oligonucleotide (Ig heavy chain enhancer) (dsDNA)
DNA 1: GCCGAATTTGCATATTTGCATGGCTG
DNA 2: CAGCCATGCAAATATGCAAATTCGGC
B1: binds [1].

B2: unlabeled octamer oligonucleotide (dsDNA)
DNA 1: GCCGAATTTGCATATTTGCATGGCTG
DNA 2: CAGCCATGCAAATATGCAAATTCGGC
B2: binds [2].
